Targets include Ac-NSFSQ-H; Ac-NSTSQ-H; Ac-ESTLQ-H.
What all share (assay): FRET

B1: SARS-CoV main protease (Mpro), P0C6X7 (protein)
chain: SGFRKMAFPSGKVEGCMVQVTCGTTTLNGLWLDDTVYCPRHVICTAEDMLNPNYEDLLIRKSNHSFLVQAGNVQLRVIGHSMQNCLLRLKVDTSNPKTPKYKFVRIQPGQTFSVLACYNGSPSGVYQCAMRPNHTIKGSFLNGSCGSVGFNIDYDCVSFCYMHHMELPTGVHAGTDLEGKFYGPFVDRQTAQAAGTDTTITLNVLAWLYAAVINGDRWFLNRFTTTLNDFNLVAMKYNYEPLTQDHVDILGPLSAQTGIAVLDMCAALKELLQNGMNGRTILGSTILEDEFTPFDVVRQCSGVTFQ
Regarding B1, the figures for the inhibition constant (Ki) in the experiment with Ac-NSFSQ-H, with Ac-NSTSQ-H and in the experiment with Ac-ESTLQ-H were 72.7 µM, 41 µM and 8.27 µM, respectively.

The term Ki denotes the dissociation constant of the complex between target and ligand, obtained from inhibition or displacement. A lower Ki goes with tighter binding.
